Consider one protein from paper PMC10396963, “Fibril formation and ordering of disordered FUS LC driven by hydrophobic interactions” (Nature Chemistry, 2023).

This data set deals with the molecule itself. The data set can be described thus: atomic force microscopy; film formed from 1.5 uM FUS LC at the air/PBS interface (pH 7.4), 5 h, deposited on a Si wafer and dried; 20 ± 1 °C.

B1: FUS low-complexity domain (FUS LC, 1–163 amino acids) (domain or fragment, human, UniProt P35637 1-163, looked up)
chain: MASNDYTQQATQSYGAYPTQPGQGYSQQSSQPYGQQSYSGYSQSTDTSGYGQSSYSSYGQSQNTGYGTQSTPQGYGSTGGYGSSQSSQSSYGQQSSYPGYGQQPAPSSTSGSYGSSSQSSSYGQPQSGSYSQQPSYGGQQQSYGQQQSYNPPQGYGQQNQYNS
notes: Human FUS (fused in sarcoma), N-terminal QGSY-rich low-complexity domain, amino-acid residues 1-163; For FRAP 5% of the protein carried Cy3 (NHS ester); the AFM and BAM samples were unlabelled; also called fused in sarcoma low-complexity domain; wild-type FUS LC; source: E. coli, purified (solubilised in 8 M urea, Ni-NTA, cleaved with tobacco etch virus protease, exchanged to CAPS pH 11)
In the case of B1, the binding result is “binds”.
